The data set has as its target T1, N-Succinyl-Ala-Ala-Pro-Phe-p-nitroanilide.
T1 chain: AAPF

The values that follow come from patent publication US20030108991.

As a reminder, the Km is the substrate concentration at which the rate is half of its maximum.

B1: soluble keratinase (Bacillus licheniformis PWD-1 keratinase) (protein)
chain: AQTVPYGIPLIKADKVQAQGFKGANVKVAVLDTGIQASHPDLNVVGGASFVAGEAYNTDGNGHGTHVAGTVAALDNTTGVLGVAPSVSLYAVKVLNSSGSGSYSGIVSGIEWATTNGMDVINMSLGGASGSTAMKQAVDNAYARGVVVVAAAGNSGSSGNTNTIGYPAKYDSVIAVGAVDSNSNRASFSSVGAELEVMAPGAGVYSTYPTNTYATLNGTSMVSPHVAGAAALILSKHPNLSASQVRNRLSSTATYLGSSFYYGKGLINVEAAAQ
In the case of B1, the Km came out at 220 µM.
